Tests used:
Type in all cases: cell-based, human
[1] = tested on: GFP-labeled cancer cell lines; experiment: Effect of secreted factors on proliferation under DMSO (pScore); settings: DMSO control experiments
From the text: FIGS. 8A-D show schematic overviews of rScore and bScore calculation. Calculation of rScore and bScore is derived from the data points A, B, C, D marked on GFP-level curves of cells under different treatment conditions, as shown in FIGS. 8A-B. As all cells used in the screen are constitutively expressing GFP, GFP level was used as a proxy for the number of cells. […] Proliferation score (pScore) describes the percent of change in the number of cells after seven days of treatment with a given factor. Rescue score (rScore) quantifies the effect of a given factor on the resistance to a given drug. Relative rescue describes the proportion of cells treated with drug+factor out of untreated cells. The higher this ratio, the stronger effect the factor has on drug resistance. Residual drug growth describes the proportion of cells growth under drug relative to no treatment condition. […] Finally, the rescue score (rScore) is the relative rescue after adding a penalty for drugs with low efficacy. […] Bliss Score (bScore) quantifies the extent of synergism between a given factor and a given drug. Factor effect describes the proportion (or probability) of cells killed by the factor. Drug effect describes the proportion (or probability) of cells killed by the drug. The observed killing effect (observed effect) describes the proportion (or probability) of cells killed by both factor and drug. Assuming drug killing and factor killing are independent events, the expected killing effect (expected effect) is the sum of probabilities D and F excluding events intersection (D*F), which represents a subpopulation of cells that may be sensitive to both the drug and factor. Finally, bliss score (bScore) is the delta between observed and expected killing multiplied by −1 to symbolize the expected decrease in the number of cancer cells following the addition of a factor. […] Upper panel—effect on cells proliferation. […] The number of experiments (out of 79) with pro-proliferative effect (pScore>30%) and anti-proliferative effect (pScore<−30%) were counted for each factor in the secretome library. […]

[2] = tested on: BRAF (V600E) colorectal cancer cell lines; experiment: High-throughput secretome screen of GFP-labeled cells (rScore); settings: colorectal cell lines bearing BRAF (V600E); BRAF/MEK inhibitors
Experimental: (§1) Cell lines—All cell lines (Table 1 hereinbelow) were cultured in DMEM supplemented with 100 units/ml Penicillin and Streptomycin, 2 μmM Glutamine, 1 μmM Pyruvate and 10% FCS, and maintained in a humidified incubator at 37° C. and 5% CO2. Cells were routinely tested for Mycoplasma contamination by PCR. To generate stable cell lines constitutively expressing GFP, cells were infected with lentivirus bearing plasmid pLEX_TRC206 and sorted by FACS to enrich for GFP positive population. For the in-vitro experiments, human cancer cell lines which constitutively expressed GFP were treated with various cytotoxic and targeted drugs (see Table 1 hereinbelow); and the effect of different secreted factors (Table 2 hereinbelow) on the innate resistance to a drug based on the cells' GFP level was determined.
(§2) High throughput in-vitro screens—For high-throughput screens or drug dose curves, cells were counted by Vi-Cell XR (Beckman coulter). Cells were seeded on 384 wells plates (Corning, 3712) using the EL406 washer dispenser (BioTek). Liquid handling of medium and drugs was effected by CyBi (WellFlex vario, CyBio). GFP fluorescence of cells was measured at 477/517 nm (excitation/emission) using Cytation3 (BioTek). Due to fluorescence reading bias at plate margins and corners, these margins were discarded for analysis.
High-throughput secretome screens—To screen for the effect of secreted factors on the response of cell lines to different drugs, the following seven-days procedure was performed. On day 0, GFP expressing cells were seeded at 1500-2000 cells per well on 384-wells plates (Corning, 3712), depending on the cell line's proliferation rate. Each plate was seeded with one cell line. […] Cell fluorescence was read at days 1, 4 and 7 by Cytation3, and for some of the experiments at day 6 as well. […]
(2) Based on observations, the plate area spanning rows 4-13 and columns 4-21 was hardly affected by plate margins biases. […] Next, to capture row and column (col) biases for the i-th row and the j-th column, the bias factor was calculated: […]

[3] = tested on: BRAF (V600E) melanoma cell lines; experiment: High-throughput secretome screen of GFP-labeled cells (rScore, bScore, ranks); settings: melanoma cell lines bearing BRAF (V600E); BRAF/MEK inhibitors
Experimental: as §1, §2
High-throughput secretome screens—To screen for the effect of secreted factors on the response of cell lines to different drugs, the following seven-days procedure was performed. On day 0, GFP expressing cells were seeded at 1500-2000 cells per well on 384-wells plates (Corning, 3712), depending on the cell line's proliferation rate. Each plate was seeded with one cell line. At day 1, each plate was treated with the secretome library (Table 2 hereinabove), one well per factor. Immediately afterwards, each plate was treated either with a drug (Table 1 hereinabove) at the EC90 concentration or with DMSO control. The CyBi liquid handler was used to treat each plate with a drug and the secretome library as well as to replace the medium, drug and secreted factors following 3 days of incubation (day 4). Cell fluorescence was read at days 1, 4 and 7 by Cytation3, and for some of the experiments at day 6 as well. Wells of interest were imaged at day 7 using the Operetta (PerkinElmer).
(2) Based on observations, the plate area spanning rows 4-13 and columns 4-21 was hardly affected by plate margins biases. This area is referred to herein as plate core. To control for row specific and column specific biases, plate outliers (Zscore>4 or Zscore<−4) and edges were masked. Next, to capture row and column (col) biases for the i-th row and the j-th column, the bias factor was calculated:
Upon QC completion, 199 experiment plates and 79 control (DMSO) plates were left for further analysis. • 4—Scoring methods-A GFP value for wells without secretome factors was obtained by averaging over the plate internal control wells. Those wells contained the solvents used in the secretome library. pScore: The effect of the secreted factors on proliferation under DMSO was evaluated using pScore (proliferation score). Values were given in percent units.
rScore: The effect of the secreted factors on resistance to anti-cancer drugs was evaluated using rScore (rescue score). rScore was assigned to a given factor under two conditions: • 1. drug effect was >30% (residual drug growth<0.7) • 2. proliferation ratio between factor treated and untreated cells in the presence of drug was higher than one:
rSscore=S−S*residual drug growth
Based on manual inspection of the rScore distribution across the data, the threshold for a potential effect on drug resistance was set to 0.2 (FIGS. 8A-D).
(*) Negative values were considered as zero. […] Groups with less than 4 experiments were discarded, finally resulting in 13 groups of experiments (FIG. 1E). […]

pERK in G361 cell line = experiment: In-cell western blot of pERK; settings: G361 cells treated with the BRAF inhibitor (vemurafenib 2 μM and trametinib 1 nM)
Experimental: PLX4720—BRAFi, 2 μM; PD184352—MEKi, 1 μM, EMAPII—50 ng/ml. P-value of the difference between GFP(drug)/GFP(no-treatment) and GFP(drug+EMAPII)/GFP(no-treatment), at day 7, was calculated by two-sided t-test. ** p<0.01, *** p<0.001. Average rScore (+/−SE) was calculated from at least four different experiments. […] A total of 69 experiments are shown. […] The effect of FGF2 (10 ng/ml), EMAPII (10 ng/ml) or AIMP1 (10 ng/ml) on G361 μmelanoma cells treated with vemurafenib (2 μM) was measured with or without the FGFR inhibitor PD17307 (0.5 μM). Data represent an average of 4 to 8 experiments. P-value was calculated by two-sided t-test. *** p<0.001. Error bars represent standard error. […] P-values were calculated by two-sided t-test relative to luciferase. * p<0.05, Q-value=0.1. […] P-value was calculated by two-sided t-test. *** p<0.001.
In-cell western blot—To validate that EMAPII mediates its effect on resistance to BRAF inhibition via the FGF receptors (FIG. 2G), the melanoma BRAF mutated cell line G361 was seeded in a 384-wells plate at a concentration of 16,000 cells per well. […] Finally, the plate was scanned with Odyssey (Li-cor) using microplate settings (169 μm, […]), and fluorescence intensity was quantified and normalized to the DRAQ level, and then to no drug control (DMSO).

With neuregulin-1 the “effect on proliferation (pScore)” value [1] was “pro-proliferative”.

For “insulin: pro-proliferative secreted factor”, the “effect on proliferation (pScore)” value [1] was “pro-proliferative”.

B1: interferon gamma: anti-proliferative secreted factor (protein, UniProt P01579 24-161, looked up)
Interferon gamma: QDPYVKEAENLKKYFNAGHSDVADNGTLFLGILKNWKEESDRKIMQSQIVSFYFKLFKNFKDDQSIQKSVETIKEDMNVKFFNSNKKKRDDFEKLTNYSVTDLNVQRKAIHELIQVMAELSPAAKTGKRKRSQMLFRG
For B1, the “effect on proliferation (pScore)” value [1] was “anti-proliferative”.

B2: FGF10: fibroblast growth factor 10, ligand of FGFR2IIIb (protein, UniProt O15520 38-208, looked up)
Fibroblast growth factor 10: QALGQDMVSPEATNSSSSSFSSPSSAGRHVRSYNHLQGDVRWRKLFSFTKYFLKIEKNGKVSGTKKENCPYSILEITSVEIGVVAVKAINSNYYLAMNKKGKLYGSKEFNNDCKLKERIEENGYNTYASFNWQHNGRQMYVALNGKGAPRRGQKTRRKNTSAHFLPMVVHS
For B2, the “effect on drug resistance” value [2] was “could confer drug resistance to colorectal cancers” and the “effect on drug resistance” value [3] was “much smaller effect on melanoma cell lines”.

B3: BTC: EGFR ligand beta-cellulin (protein, UniProt P35070 32-111, looked up)
Betacellulin: DGNSTRSPETNGLLCGDPEENCAATTTQSKRKGHFSRCPKQYKHYCIKGRCRFVVAEQTPSCVCDEGYIGARCERVDLFY
In the case of B3, the “effect on drug resistance” value [2] is reported as “mediate resistance only to the colorectal cell lines”.

B4: FGF7: fibroblast growth factor 7, ligand of FGFR2IIIb (protein, UniProt P21781 32-194, looked up)
Fibroblast growth factor 7: CNDMTPEQMATNVNCSSPERHTRSYDYMEGGDIRVRRLFCRTQWYLRIDKRGKVKGTQEMKNNYNIMEIRTVAVGIVAIKGVESEFYLAMNKEGKLYAKKECNEDCNFKELILENHYNTYASAKWTHNGGEMFVALNQKGIPVRGKKTKKEQKTAHFLPMAIT
B4 was tested, and the “effect on drug resistance” value [2] was “could confer drug resistance to colorectal cancers” and the “effect on drug resistance” value [3] was “much smaller effect on melanoma cell lines”.

B5: AIMP1: aminoacyl tRNA synthetase complex interacting multifunctional protein 1 (protein, UniProt Q12904 2-312, looked up)
Aminoacyl tRNA synthase …: ANNDAVLKRLEQKGAEADQIIEYLKQQVSLLKEKAILQATLREEKKLRVENAKLKKEIEELKQELIQAEIQNGVKQIPFPSGTPLHANSMVSENVIQSTAVTTVSSGTKEQIKGGTGDEKKAKEKIEKKGEKKEKKQQSIAGSADSKPIDVSRLDLRIGCIITARKHPDADSLYVEEVDVGEIAPRTVVSGLVNHVPLEQMQNRMVILLCNLKPAKMRGVLSQAMVMCASSPEKIEILAPPNGSVPGDRITFDAFPGEPDKELNPKKKIWEQIQPDLHTNDECVATYKGVPFEVKGKGVCRAQTMSNSGIK
With B5 the pERK reactivation (pERK in G361 cell line) was “partially reactivate pERK”.

— patent US20240133870A1, “COMBINED TREATMENT FOR CANCER” (Yeda Research and Development Co. Ltd., priority 2021, published 2024)
